Reference: patent US6518054B1, “Metallo-endopeptidases” (Rijksuniverstteit Te Groningen, priority 1997, dated 2003)

Assays:
casein [1] = assay: Hydrolysis of 10% (w/v) casein compared with commercial enzyme preparations; type: biochemical; details: casein 10% w/v
Excerpt: (§1) In industrial applications enzymes are used for the hydrolysis of protein preparations derived from different sources. Here we show the results of a comparative study in which the rate and quality of hydrolysis of casein and yeast protein preparations by the 8-fold mutated TLP-ste variant was compared with that obtained by the hydrolysis using 3 different enzyme preparations that are used for these purposes in industry. The hydrolysis conditions were chosen such that they were optimal for each of the enzyme preparation under study. The hydrolysis products were separated in an acid-soluble and a not acid-soluble fraction. The amount of acid-soluble protein material formed upon hydrolysis was determined by means of measuring the absorbance at 275 nm, whereas the composition of the acid-insoluble hydrolysis products was studied using SDS-PAGE.
(§2) Substrate (10% w/v of casein or yeast protein preparation) was incubated in 50 mM Tris-MES, 5 mM CaCl2, pH 6.5 at 50° C. (Enzyme I, Favourzyme™ 1000L); 50 mM Tris-MES, 5 mM CaCl2, pH 6.0 at 60° C. (Enzyme II, BioProtease N100L); 50 mM Tris-MES, 5 mM CaCl2, pH 8.0 at 60° C. […] The amount of acid-soluble protein released by hydrolysis was determined by measuring the absorbance of the samples at 275 nm. The acid precipitated proteins were redisolved in 6 M urea and subsequently analysed by SDS-PAGE (15% running gel).

casein [2] = assay: Optimum temperature for activity with casein; type: biochemical
Method: (§3) Specific activities for TLP-ste and the 8-fold mutant were determined using casein (0.8%) as a substrate in 50 mM Tris-HCl (pH 7.5), 5 mM CaCl2 at 37° C. […] (pH 7.0), 5 mM CaCl2, 5% or 1% DMSO, 0.5% isopropanol, 0.01% Triton X-100, 50 mM NaCl, with […] of substrate, by measuring the decrease in absorption at 345 nm (Î345=−317 M^−1·cm^−1). Stock solutions of the furylacryloylated dipeptides, (Sigma, St. Louis, […].) were prepared by dissolving 3-(-2-furylacryloyl)-L-glycyl-L-leucine amide (FaGLa) and 3-(-2-furylacryloyl)-L-alanyl-L-phenylalanine amide (FaAFa) in DMSO. The kcat/Km ratios of the enzymes were determined by varying the enzyme concentrations (over a 50 fold range) under pseudo-first order conditions by measuring the initial activity, essentially according to the method described by Feder^30. The Ki for phosphoramidon (N-[a-L-rhamnopyrano-syl-oxyhydroxyphophinyl]-L-leucyl-L-tryptophan) was determined by a 30 minute preincubation of a 100 pM protease solution with varying concentrations of the inhibitor (10^−8 to 10^−3 M), in 50 mM MOPS (pH 7.0), 5 mM CaCl2, 50 mM NaCl, prior to the addition of the furylacryloated substrate. For determination of the Ki FaAFa was used as the substrate. Since the Km of the substrate for the enzyme is higher than the concentration used, IC50 values were taken to be equal to Ki values. The optimum temperature for activity was determined by incubating proteases with casein (0.8%) in 50 mM Tris-HCl (pH 7.5), 5 mM CaCl2, at different temperatures for 30 minutes, after which the amount of released peptides, indicative for activity, was measured^11.

[3] = type: physicochemical
Method: Stabilities of TLPs were determined at different temperatures. Shown are the first-order inactivation curves for TLP-ste incubated at 80° C. (Δ) and 90° C. (+), thermolysin at 90° C. (Δ), and the 8-fold mutant at 100° C. (●), respectively. […] Samples, taken at the various time points, were quickly cooled on ice (15 s) and transferred to 50° C. to prevent cold denaturation. Residual activity was determined using casein (0.8%) as a substrate in 50 mM TrisHCl (pH 7.5), 5 mM CaCl2 as described previously (Eijsink, V. G. H., Veltman, O. R., Aukema, W., Vriend, G. & Venema, G. Nature Struct. Biol. 2, 374-379 (1995)).

casein [4] = assay: Specific activity with casein as substrate at 37° C.; type: biochemical
Method: as §3

β-Casein = assay: Proteolytic (cleavage) specificity on β-casein, reversed phase peptide pattern; type: biochemical; details: moderate and high temperatures (60° C. and 100° C.)
Method: FIG. 3. Typical proteolytic specificity of TLP-ste and the 8-fold mutant β-Casein (1 mg/ml) was incubated with TLP-ste or the 8-fold mutant at a molar ratio of 1000:1 for 1 hour at 60° C. and 100° C., respectively. Under these conditions β-casein behaves as a non-compact and largely flexible structure. The peptides resulting from hydrolysis were derivatized with dansyl-chloride. The proteolytic products were separated by loading a sample corresponding to 50 μg β-casein on a reversed phase column (RP-304, Bio-Rad Laboratories, Watford, Herts., UK). The mobile phase used was 50 mM NaAc, pH 5.2. Peptides were eluted with a linear gradient from 0-60% acetonitrile at a flow rate of 1 ml/min. Absorption of the eluting peptides was monitored at 254 nm.

[5] = test system: yeast protein preparation; assay: Hydrolysis of 10% (w/v) yeast proteins compared with commercial enzyme preparations; type: biochemical; details: yeast proteins 10% w/v
Excerpt: as §1, §2

[6] = enzyme 0.05% v/v, pH 7.0, 90° C.

B1: 8-fold mutant: TLP-ste with A4T, T56A, G58A, T63F, S65P, A69P and a disulfide bridge G8C-N60C (protein)
chain: VAGTSTVCVGRGVLGDQKYINTTYSSYYGYYYLQDNTRGSGIFTYDGRNRTVLPGSLWADADCQFFAPYDAPAVDAHYYAGVVYDYYKNVHGRLSYDGSNAAIRSTVHYGRGYNNAFWNGSQMVYGDGDGQTFLPFSGGIDVVGHELTHAVTDYTAGLVYQNESGAINEAMSDIFGTLVEFYANRNPDWEIGEDIYTPGVAGDALRSMSDPAKYGDPDHYSKRYTGTQDNGGVHTNSGIINKAAYLLSQGGVHYGVSVNGIGRDKMGKIFYRALVYYLTPTSNFSQLRAACVQAAADLYGSTSQEVNSVKQAFNAVGVY
range of hydrolysis products (SDS-PAGE) versus the other enzymes (casein [1]): much broader range of hydrolysis products | rate of hydrolysis and acid-soluble protein products versus the other enzyme preparations (casein [1]; [6]): more rapidly and that more acid-soluble protein products are produced | rise of temperature for optimum activity versus wild-type (casein [2]): 21 °C | Topt (optimum temperature for activity) (casein [2]; casein 0.8%, 30 minutes): 95 °C | half life at 100° C. [3]: ~3 h | half-life at 100° C. relative to the wild-type [3]: more than 1000 times | half-life 80° C. ([3]; buffer, pH 5.3): stable | half-life 90° C. ([3]; buffer, pH 5.3): stable | half-life 100° C. ([3]; buffer, pH 5.3): 2.83 h | specific activities at 37° C., wild-type versus mutant (casein [4]): identical | Specific activity casein (casein [4]; casein 0.8%, pH 7.5, 5 mM CaCl2): 3.9 ± 0.7 (U/mg) × 10^−3 | cleavage specificity, effect of the stabilizing mutations (β-Casein): largely unaffected | range of hydrolysis products (SDS-PAGE) versus the other enzymes [5]: much broader range of hydrolysis products | rate of hydrolysis and acid-soluble protein products versus the other enzyme preparations [5, 6]: more rapidly and that more acid-soluble protein products are produced
